B1: WT: wild-type squalene hopene cyclase from Gluconobacter morbifer, SEQ ID NO: 1 / SEQ ID NO: 2 (protein)
chain: MSPADISTKSSSFQRLDNMLPEAVSSACDWLIDQQKPDGHWVGPVESNACMEAQWCLALWFLGQEDHPLRPRLAQALLEMQREDGSWGIYVGADHGDINTTVEAYAALRSMGYAADMPIMAKSAAWIQQKGGLRNVRVFTRYWLALIGEWPWDKTPNLPPEIIWLPDNFIFSIYNFAQWARATMMPLTILSARRPSRPLLPENRLDGLFPEGRENFDYELPVKGEEDLWGRFFRAADKGLHSLQSFPVRRFVPREAAIRHVIEWIIRHQDADGGWGGIQPPWIYGLMALSVEGYPLHHPVLAKAMDALNDPGWRRDKGDASWIQATNSPVWDTMLAVLALHDAGAEDRYSPQMDKAIGWLLDRQVRVKGDWSIKLPDTEPGGWAFEYANDKYPDTDDTAVALIALAGCRHRPEWRERDIEGAISRGVNWLLAMQSSSGGWGAFDKDNNRSILTKIPFCDFGEALDPPSVDVTAHVLEAFGLLGISRNHPSVQKALAYIRSEQERNGAWFGRWGVNYVYGTGAVLPALAAIGEDMTQPYIVRACDWLMSVQQENGGWGESCASYMDINAVGHGVATASQTAWALIGLLAAKRPKDREAIARGCQFLIERQEDGSWTEEEYTGTGFPGYGVGQAIKLDDPSLPDRLLQGAELSRAFMLRYDLYRQYFPVMALSRARRMMKEDASAAA
modifications: Gluconobacter morbifer
B2: V45L + Q54E + V222R + I278T + T326S: GmSHC variant with these substitutions relative to SEQ ID NO: 2 (protein)
chain: MSPADISTKSSSFQRLDNMLPEAVSSACDWLIDQQKPDGHWVGPLESNACMEAEWCLALWFLGQEDHPLRPRLAQALLEMQREDGSWGIYVGADHGDINTTVEAYAALRSMGYAADMPIMAKSAAWIQQKGGLRNVRVFTRYWLALIGEWPWDKTPNLPPEIIWLPDNFIFSIYNFAQWARATMMPLTILSARRPSRPLLPENRLDGLFPEGRENFDYELPRKGEEDLWGRFFRAADKGLHSLQSFPVRRFVPREAAIRHVIEWIIRHQDADGGWGGTQPPWIYGLMALSVEGYPLHHPVLAKAMDALNDPGWRRDKGDASWIQASNSPVWDTMLAVLALHDAGAEDRYSPQMDKAIGWLLDRQVRVKGDWSIKLPDTEPGGWAFEYANDKYPDTDDTAVALIALAGCRHRPEWRERDIEGAISRGVNWLLAMQSSSGGWGAFDKDNNRSILTKIPFCDFGEALDPPSVDVTAHVLEAFGLLGISRNHPSVQKALAYIRSEQERNGAWFGRWGVNYVYGTGAVLPALAAIGEDMTQPYIVRACDWLMSVQQENGGWGESCASYMDINAVGHGVATASQTAWALIGLLAAKRPKDREAIARGCQFLIERQEDGSWTEEEYTGTGFPGYGVGQAIKLDDPSLPDRLLQGAELSRAFMLRYDLYRQYFPVMALSRARRMMKEDASAAA
modifications: Gluconobacter morbifer

Assay: SHC variant screening reactions: conversion of HFA to sclareolide by freeze-dried whole cells, GC analysis
Format: biochemical, Gluconobacter morbifer
Method: SHC Variant Enzyme Expression. Wild-type and the GmSHC variants of Table 5 were individually cloned into pET28a(+). These DNA constructs were transformed into Lemo21 (DE3) E. coli and plated onto agar plates containing Kanamycin. These were incubated overnight at 37° C. A single bacterial colony was picked and used to inoculate 10 mL LB+Kanamycin in a 50 mL falcon tube. This primary culture was incubated overnight at 37° C. with agitation. These cultures (10 mL) were used to inoculate 1L LB+Kanamycin in a shake flask, which was subsequently incubated at 37° C. at 180 rpm for about 4 hours. Protein expression was then induced with the addition of 0.4 mM IPTG and 0.2 mM L-rhamnose. The incubator temperature was lowered to 25° C. and the cultures further incubated at 180 rpm overnight. The next day, the cultures were centrifuged at 4000 rpm for 10 minutes and the supernatant discarded. Cell pellets were resuspended in 0.1 M Potassium phosphate buffer pH 7.4 and exposed to 1 round of freeze/thawing before lyophilization and then use in the reaction assay.
SHC Variant Screening Reactions. Sodium citrate buffer 0.2 M, pH 5 was prepared and 500 μL of this buffer was added to freeze-dried whole cells of each variant (from 1 L shake flask fermentation of E. coli transformed with desired variant plasmid). The results were obtained with an enzyme loading of 50% (w/w). Subsequently, HFA (20 mg/mL) was added to the buffer/enzyme mix. The reactions were incubated at 25° C. with agitation for 72 hours. To stop the reaction and extract the products, a 2X volume of 3:2, heptane: isopropanol was added to each reaction. These were then incubated at 37° C. for 30 minutes with agitation to mix thoroughly. The reactions were centrifuged for 10 minutes at 4000 rpm to pellet any cellular material. The upper organic layer was then removed and placed in a clean gas chromatography (GC) vial.
GC Analysis Method. A GC analytical method was used to detect each of the starting materials and products used in the screening reactions. Due to the volume of samples generated, a fast method was developed with a run time of only 4.5 minutes.
No metal ions were included in the reaction.
Further analysis was conducted to identify one or more optimal SHC enzymes. In particular, substrate loading was increased to 20 mg/mL and incubation with a reduced enzyme loading (50%).

Row | Molecule | conversion of HFA to sclareolide (10 mg/mL HFA, 100% enzyme loading) | Fold improvement (sclareolide production) (10 mg/mL HFA, 100% enzyme loading, based on % peak area, relative to V45L+Q54E+I278T+T326S variant, no metal ions) [Fold] | Fold improvements (sclareolide production) (20 mg/mL HFA, 50% enzyme loading, relative to initial mutant) [Fold]
1 | B1 | did not show any conversion |  | 
2 | B2 |  | 4.2 | 27

— US20250368978A1, “SQUALENE HOPENE CYCLASE VARIANTS FOR PRODUCING SCLAREOLIDE” (INTERNATIONAL FLAVORS & FRAGRANCES INC., priority 2022, published 2025)
